According to patent publication US20030166872A1 (APPLIED MOLECULAR EVOLUTION, published 2003):
Positions count from the first letter of the chain named.

B1: LM609 grafted antibody combinatorial clone 2G4 (Fab, V domains shown)
VH: QVQLVESGGGVVQPGRSLRLSCAASGFTFSSYDMSWVRQAPGKGLEWVAKVSSGGGSTYYLDTVQGRFTISRDNSKNTLYLQMNSLRAEDTAVYYCARHNYGSFASWGQGTTVTVSS
VL: EIVLTQSPATLSLSPGERATLSCQASQSISNHLHWYQQRPGQAPRLLIRYRSQSISGIPARFSGSGSGTDFTLTISSLEPEDFAVYYCQQSGSWPLTFGGGTKVEIK
notes: Fab
B2: LM609 grafted antibody combinatorial clone C37 (Fab, V domains shown)
VH: B1 VH with A105Y, S106E
VL: B1 VL
notes: Fab
B3: LM609 grafted antibody combinatorial clone 6G1 (Fab, V domains shown)
VH: B1 VH with L61P
VL: B1 VL
notes: Fab
B4: LM609 grafted antibody combinatorial clone 8F9 (Fab, V domains shown)
VH: B1 VH with L61P, Y101H
VL: B1 VL
notes: Fab
B5: LM609 grafted antibody combinatorial clone C119 (Fab, V domains shown)
VH: B1 VH with L61P
VL: B1 VL with G92N, L96H
notes: Fab
B6: LM609 grafted antibody combinatorial clone C29 (Fab, V domains shown)
VH: B1 VH with L61P, Y101H, A105Y
VL: B1 VL
notes: Fab
B7: LM609 grafted antibody combinatorial clone 56 (Fab, V domains shown)
VH: B1 VH with L61P
VL: B1 VL with H32F, L96H
notes: Fab
B8: LM609 grafted antibody combinatorial clone 7 (Fab, V domains shown)
VH: B1 VH with L61P, Y101H
VL: B1 VL with H32F, L96H
notes: Fab
B9: LM609 grafted antibody combinatorial clone C176 (Fab, V domains shown)
VH: B1 VH with L61P, S106T
VL: B1 VL with H32F, L96H
notes: Fab
B10: LM609 grafted antibody combinatorial clone 6H6 (Fab, V domains shown)
VH: B1 VH with Y101H
VL: B1 VL
notes: Fab
B11: LM609 grafted antibody combinatorial clone 17 (Fab, V domains shown)
VH: B1 VH
VL: B1 VL with H32F, L96H
notes: Fab
B12: LM609 grafted antibody combinatorial clone 6D1 (Fab, V domains shown)
VH: B1 VH with L61P, A105Y
VL: B1 VL
notes: Fab
B13: enhanced LM609 grafted antibody clone 2236-38/6H6LH (Fab, V domains shown)
VH: B1 VH with L61P, N100L, Y101H
VL: B1 VL with H32F
B14: LM609 grafted antibody variant Q96 (Fab, V domains shown)
VH: B1 VH with S106Y
VL: B1 VL with L96Q
notes: Fab
B15: LM609 grafted antibody variant M102 (Fab, V domains shown)
VH: B1 VH with S106M
VL: B1 VL with L96H
notes: Fab
B16: LM609 grafted antibody variant W29 (Fab, V domains shown)
VH: B1 VH with F29W, S106Y
VL: B1 VL with L96H
notes: Fab
B17: LM609 grafted antibody variant T92 (Fab, V domains shown)
VH: B1 VH with S106Y
VL: B1 VL with G92T, L96H
notes: Fab
B18: LM609 grafted antibody variant N92 (Fab, V domains shown)
VH: B1 VH with S106Y
VL: B1 VL with G92N, L96H
notes: Fab
B19: LM609 grafted antibody variant A102 (Fab, V domains shown)
VH: B1 VH with S106A
VL: B1 VL with L96H
notes: Fab
B20: LM609 grafted antibody variant L96 (Fab, V domains shown)
VH: B1 VH with S106Y
VL: B1 VL
notes: Fab
B21: LM609 grafted antibody variant E102 (Fab, V domains shown)
VH: B1 VH with S106E
VL: B1 VL with L96H
notes: Fab
B22: LM609 grafted antibody variant K52 (Fab, V domains shown)
VH: B1 VH with S52K, S106Y
VL: B1 VL with L96H
notes: Fab
B23: LM609 grafted antibody variant S51 (Fab, V domains shown)
VH: B1 VH with S106Y
VL: B1 VL with R51S, L96H
notes: Fab
B24: LM609 grafted antibody variant F32 (Fab, V domains shown)
VH: B1 VH with S106Y
VL: B1 VL with H32F, L96H
notes: Fab
B25: LM609 grafted antibody variant L30 (Fab, V domains shown)
VH: B1 VH with S30L, S106Y
VL: B1 VL with L96H
notes: Fab
B26: LM609 grafted antibody variant G102 (Fab, V domains shown)
VH: B1 VH with S106G
VL: B1 VL with L96H
notes: Fab
B27: LM609 grafted antibody variant P60 (Fab, V domains shown)
VH: B1 VH with L61P, S106Y
VL: B1 VL with L96H
notes: Fab
B28: LM609 grafted antibody variant T27 (Fab, V domains shown)
VH: B1 VH with F27T, S106Y
VL: B1 VL with L96H
notes: Fab

What follows are binders tested against T1, integrin αVβ3 (human, UniProt P06756 31-1048; P05106 27-788) (assay: SPR (BIAcore)).
T1 construct: mature; biotinylated in capture lift and capture ELISA; also on M21 melanoma cells in some assays; also called vitronectin receptor; αVβ3 receptor

Binder	fold slower dissociation rate	fold greater association rate
B1	> 10 fold	–
B2	> 10 fold	–
B3	> 10 fold	2 to 4 fold
B4	> 10 fold	–
B5	> 10 fold	–
B6	> 10 fold	2 to 4 fold
B7	> 10 fold	–
B8	> 10 fold	–
B9	> 10 fold	–
B10	> 10 fold	–
B11	> 10 fold	–
B12	> 10 fold	–

What follows are binders tested against T1, integrin αVβ3 (assay: SPR (BIACORE), as in Example VI).
Method: The affinities of select variants were further characterized by utilizing surface plasmon resonance (BIAcore) to measure the association and dissociation rates of purified Fab with immobilized αVβ₃. […] To obtain association rate constants (kₒₙ), the binding rate at five different Fab concentrations, ranging from 5-40 μg/ml in 50 mM Tris-HCl, pH 7.4, 100 mM NaCl, 2 mM CaCl₂, and 1 mM MgCl₂, was determined at a flow rate of 10 μl/min. Dissociation rate constants (koff) were the average of five measurements obtained by analyzing the dissociation phase at an increased flow rate (40 μl/min). Sensorgrams were analyzed with the BIAevaluation 2.1 program (Pharmacia). Residual Fab was removed after each measurement with 10 mM HCl, 2 mM CaCl₂ and 1 mM MgCl₂.

Binder	Kd
B10	0.62 nM
B13	0.9 nM

Each binder was assayed against T1, integrin αVβ3 (assay: ELISA titration of Fab on immobilized αVβ3).
Method: For ELISA titration of Fab on immobilized αVβ₃ and the related integrins αVβ₅ and αIIbβ₃, Immulon II microtiter plates were coated with 1 μg/ml purified receptor in 20 mM Tris, pH 7.4, 150 mM NaCl, 2 mM CaCl, 1 mM MgCl₂, 1 mM MnCl₂, washed once, and blocked in 3% BSA in 50 mM Tris, pH 7.4, 100 mM NaCl, 2 mM CaCl₂, 1 mM MgCl₂ for 1 h at 25° C. […] Just prior to use, the plates were washed two times and were then incubated 1 h at 25° C. with various dilutions of Fab. […] All dilutions and washes were in 50 mM Tris-HCl, pH 7.4, 100 mM NaCl, 2 mM CaCl₂, and 1 mM MgCl₂.

Binder	fold enhanced binding over LM609 grafted antibody
B14	> 3 fold
B15	> 3 fold
B16	> 3 fold
B17	> 3 fold
B18	> 3 fold
B19	> 3 fold
B20	> 3 fold
B21	> 3 fold
B22	> 3 fold
B23	> 3 fold
B24	> 3 fold
B25	> 3 fold
B26	> 3 fold
B27	> 3 fold
B28	> 3 fold
